In article PMC5379210 (Scientific Reports, 2017):
Numbering of substitutions follows the chain as printed. In names and notes the source's numbering stands. Each block holds one molecule with its values, some of them ahead of it.

Key:
[1] = molecular target: S. cerevisiae Gpi8 (23-306aa) C85A (S. cerevisiae) (UniProt P49018); test: SEC-MALS; C85A mutant under reducing conditions
[2] = molecular target: S. cerevisiae Gpi8 (23-306aa) C85A (S. cerevisiae) (UniProt P49018); test: SEC; single purified protein on Superdex 200 10/300 GL, 20 mM Tris-HCl pH 8, 150 mM NaCl, purified without reducing agent (non-reducing) or with 2.5 mM DTT; re-runs of peaks; dimer to monomers
[3] = molecular target: S. cerevisiae Gpi8 (23-337aa) (S. cerevisiae) (UniProt P49018); test: as above
[4] = molecular target: the molecule itself; test: as above

stoichiometry N [1]: 2
stoichiometry N [2]: 2
Molecule: S. cerevisiae Gpi8 (23-306aa) C85A (from UniProt P49018 23-306) (domain or fragment)

stoichiometry N [3]: 2
Molecule: S. cerevisiae Gpi8 (23-337aa) (from UniProt P49018 23-337) (domain or fragment)

B1: S. cerevisiae Gpi8 (23-306aa), caspase-like domain, insect cell expressed (N-glycosylated) (domain or fragment, UniProt P49018 23-306, looked up)
chain: NNTDAAHEVIATNTNNWAVLVSTSRFWFNYRHMANVLSMYRTVKRLGIPDSQIILMLSDDVACNSRNLFPGSVFNNKDHAIDLYGDSVEVDYRGYEVTVENFIRLLTDRWTEDHPKSKRLLTDENSNIFIYMTGHGGDDFLKFQDAEEIASEDIADAFQQMYEKKRYNEIFFMIDTCQANTMYSKFYSPNILAVGSSEMDESSYSHHSDVEIGVAVIDRFTYYCLDFLEQIDKNSTLTLQDLFDSFTFEKIHSHVGVRTDLFDRNPSEVLITDFFANVQNVIPD
modifications: N-glycosylated (two predicted N-glycosylation sites in 23-306)
notes: The construct has an N-terminal gp67 signal peptide for secretion (pFastBac-dual); Runs as a disulfide-linked dimer; also called insect cell expressed Gpi8; not shown: 6xHis, C-terminal, kept
stoichiometry N [4]: 2

B2: S. cerevisiae Gpi8 (23-306aa), insect cell expressed in the presence of tunicamycin (nonglycosylated) (domain or fragment, UniProt P49018 23-306, looked up)
chain: B1 chain
notes: N-terminal gp67 signal peptide in the construct; also called nonglycosylated Gpi8; insect cell expressed Gpi8 in the presence of tunicamycin
stoichiometry N [4]: 2

B3: S. cerevisiae Gpi8 (23-306aa) C246A (domain or fragment, UniProt P49018 23-306, looked up)
chain: B1 chain with C224A
notes: the methods print Cys244Ala
stoichiometry N [4]: 2

B4: S. cerevisiae Gpi8 (23-306aa) C199A (domain or fragment, UniProt P49018 23-306, looked up)
chain: B1 chain with C177A
stoichiometry N [4]: 2

B5: S. cerevisiae Gpi8 (23-306aa), E. coli BL21 expressed (domain or fragment, UniProt P49018 23-306, looked up)
chain: B1 chain
notes: Cloned into NdeI-XhoI sites of pET26a (so in the source); also called E. coli expressed Gpi8
stoichiometry N [4]: 2

B6: S. cerevisiae Gpi8 (23-306aa), E. coli SHuffle expressed (domain or fragment, UniProt P49018 23-306, looked up)
chain: B1 chain
notes: Same construct as m12, other E. coli strain (constitutively expresses DsbC); also called E. coli Shuffle-expressed Gpi8
stoichiometry N [4]: 2

B7: S. cerevisiae Gpi8 (23-359aa) (domain or fragment, UniProt P49018 23-359, looked up)
chain: NNTDAAHEVIATNTNNWAVLVSTSRFWFNYRHMANVLSMYRTVKRLGIPDSQIILMLSDDVACNSRNLFPGSVFNNKDHAIDLYGDSVEVDYRGYEVTVENFIRLLTDRWTEDHPKSKRLLTDENSNIFIYMTGHGGDDFLKFQDAEEIASEDIADAFQQMYEKKRYNEIFFMIDTCQANTMYSKFYSPNILAVGSSEMDESSYSHHSDVEIGVAVIDRFTYYCLDFLEQIDKNSTLTLQDLFDSFTFEKIHSHVGVRTDLFDRNPSEVLITDFFANVQNVIPDDSKPLSVSHYHHYKDHIDTAQYELNNNVLDLALETYRKNNQSSKIEKKIKDIK
notes: S. cerevisiae Gpi8, C-terminal truncation of the luminal domain, residues 23-359; also called S. cerevisiae Gpi8 (23-359aa)^BL21
stoichiometry N [4]: 2

B8: S. cerevisiae Gpi8 (23-379aa) C373A (domain or fragment, UniProt P49018 23-379, looked up)
chain: NNTDAAHEVIATNTNNWAVLVSTSRFWFNYRHMANVLSMYRTVKRLGIPDSQIILMLSDDVACNSRNLFPGSVFNNKDHAIDLYGDSVEVDYRGYEVTVENFIRLLTDRWTEDHPKSKRLLTDENSNIFIYMTGHGGDDFLKFQDAEEIASEDIADAFQQMYEKKRYNEIFFMIDTCQANTMYSKFYSPNILAVGSSEMDESSYSHHSDVEIGVAVIDRFTYYCLDFLEQIDKNSTLTLQDLFDSFTFEKIHSHVGVRTDLFDRNPSEVLITDFFANVQNVIPDDSKPLSVSHYHHYKDHIDTAQYELNNNVLDLALETYRKNNQSSKIEKKIKDIKSTSVLDVDIDSNEAFFTSFK
notes: S. cerevisiae Gpi8, full-length luminal construct, residues 23-379, with C373A; also called C373A mutant
stoichiometry N [4]: 2
